Where “and” joins values, the source holds several entries; their conditions need not be identical. Equal values may be shown once.
Tests used:
[1] = target: PpsR_(N-Q-PAS1), PpsR variant comprising the N-terminal domain, the Q-linker and the PAS1 domain (Rhodobacter sphaeroides) (UniProt Q9S301); assay: SEC-MALS; Superdex 200 10/300 GL, buffer D (10 mM CHES pH 9.0, 150 mM NaCl, 5% glycerol), 400 µl of a 20 µM protein solution loaded, 0.5 ml/min
[2] = target: PpsR_(N-Q-PAS1), PpsR variant comprising the N-terminal domain, the Q-linker and the PAS1 domain (Rhodobacter sphaeroides) (UniProt Q9S301); assay: crystal structure; PpsR_(N-Q-PAS1), 10 mg/ml, 1.6 M ammonium sulfate, 100 mM MES pH 6.5, 10 mM L-cysteine, 4% 1,4-dioxane, 293 K; dimer in the asymmetric unit; 2.2 Å
[3] = target: PpsR_(N-Q-PAS1), PpsR variant comprising the N-terminal domain, the Q-linker and the PAS1 domain (Rhodobacter sphaeroides) (UniProt Q9S301); assay: MST; dimer to monomers, KD based on the total monomer concentration; Monolith NT.115, unlabelled protein titrated (1:2 dilution series) into NT-647-labelled protein (10 nM for PpsR_(N-Q-PAS1)), buffer D, three experiments averaged
[4] = target: PpsR_(Q-PAS1), PpsR variant comprising the glutamine-rich linker (Q-linker) and the PAS1 domain (Rhodobacter sphaeroides) (UniProt Q9S301); assay: crystal structure; PpsR_(Q-PAS1), 8 mg/ml, 100 mM sodium cacodylate pH 6.5, 1.9% PEG 3000, 200 mM MgCl2, 293 K; one chain in the asymmetric unit, dimer by a crystallographic dyad; 1.65 Å
[5] = target: the molecule itself; assay: SEC-MALS; Superdex 200 10/300 GL, buffer D (10 mM CHES pH 9.0, 150 mM NaCl, 5% glycerol), 400 µl of a 20 µM protein solution loaded, 0.5 ml/min
[6] = target: the molecule itself; assay: MST; tetramer to dimers, KD based on the total dimer concentration; Monolith NT.115, unlabelled protein titrated (1:2 dilution series) into 12.5 nM NT-647-labelled protein, buffer D, three experiments averaged
[7] = target: the molecule itself; assay: crystal structure; PpsR_(ΔHTH), 30 mg/ml, 1 M ammonium sulfate, 100 mM Tris-HCl pH 8.5, 6% xylitol, 12% glycerol, 1% dioxane, 293 K; four chains in the asymmetric unit, octamer by a crystallographic twofold axis; 2.8 Å

PpsR_(N-Q-PAS1), PpsR variant comprising the N-terminal domain, the Q-linker and the PAS1 domain (from UniProt Q9S301 1-257) (domain or fragment)
stoichiometry N [1]: 2 | stoichiometry N [2]: 2 | Kd [3]: 250 nM

PpsR_(Q-PAS1), PpsR variant comprising the glutamine-rich linker (Q-linker) and the PAS1 domain (from UniProt Q9S301 123-257) (domain or fragment)
stoichiometry N [4]: 2

B1: PpsR_(ΔHTH), triple PAS domain construct of PpsR (N-domain, Q-linker, PAS1, PAS2) lacking the C-terminal HTH motif (domain or fragment, Rhodobacter sphaeroides, UniProt Q9S301 1-379, looked up)
chain: MLAGGSLPSLAPDLVRDLIATAADISLLVSQEGVVREVMANPHHPSFGQLSEWEGRPLEEVLTAESVAKFRLRSEGLEPGRGSVAVELNHIDPRSFEFPIRYILHRLPADRSILMLGRDLRPIAEVQQQLVAAQLAMERDYETQREMETRYRVVLDVSRDPMVLVSMSTGRIVDLNSAAGLLLGGVRQDLLGAAIAQEFEGRRRGEFMETMTNLAATESAAPVEVLARRSQKRLLVVPRVFRAAGERLLLCQIDPADATQPVGDELSENLARLYHEGVDGIVFSDADGTIRGANEAFLNMTDSSSLAAIRGRSIADFLARGSVDLRVLIDSVRRTGQLRLYATRLTTDFAGQIAAEISATWLDDRERPLLVLVVRDTSR
notes: PpsR from Rhodobacter sphaeroides, UniProt Q9S301; the model ends at 378 with the C-terminal arginine disordered; The forward primer 1_fw introduces ATG GGA before the first codon of PpsR; In MST one copy was randomly labelled at amines with NT-647; A selenomethionine-substituted form was also crystallized for phasing; source: E. coli BL21 (DE3), purified (Ni-NTA, TEV cleavage, Superdex 200); …
stoichiometry N [5]: 2 | Kd [6]: 900 ± 200 nM | stoichiometry N [7]: 4 and 8

B2: PpsR_(full), full-length transcription factor PpsR (photopigment suppression) from Rhodobacter sphaeroides (natural protein, UniProt Q9S301 1-464, looked up)
chain: MLAGGSLPSLAPDLVRDLIATAADISLLVSQEGVVREVMANPHHPSFGQLSEWEGRPLEEVLTAESVAKFRLRSEGLEPGRGSVAVELNHIDPRSFEFPIRYILHRLPADRSILMLGRDLRPIAEVQQQLVAAQLAMERDYETQREMETRYRVVLDVSRDPMVLVSMSTGRIVDLNSAAGLLLGGVRQDLLGAAIAQEFEGRRRGEFMETMTNLAATESAAPVEVLARRSQKRLLVVPRVFRAAGERLLLCQIDPADATQPVGDELSENLARLYHEGVDGIVFSDADGTIRGANEAFLNMTDSSSLAAIRGRSIADFLARGSVDLRVLIDSVRRTGQLRLYATRLTTDFAGQIAAEISATWLDDRERPLLVLVVRDTSRADTMRRPVPATGVIDEPARNVMELVGNSTLKDIVAETTDVVEKMCIETALELTRNNRVAAAEMLSLSRQSLYVKLRKFGLLNKDE
notes: PpsR from Rhodobacter sphaeroides, UniProt Q9S301, full-length protein; gene synthesized with codon optimization for E. coli, cloned in pETM-11; In MST one copy was randomly labelled at amine positions with NT-647 red fluorescent dye (about one label per monomer); In solution a dimer-tetramer equilibrium; source: E. coli BL21 (DE3), purified (Ni-NTA, TEV cleavage, HiTrap Heparin, Superdex 200); …
Kd [6]: 900 ± 300 nM
